According to EP4454706A1 (Universität Stuttgart, dated 2024):
Read-outs that look alike come from different tables or passages of the source.

B1: IgG GC1118 (antibody, V domains shown)
VH: EVQLVESGGGVVQPGGSLRLSCAASGFTFSDYDMSWIRQAPGKGLEWVSGILGGSERSYYRDSVKGRFTISRDNSRKTLYLQMNSLRAEDTAVYYCARHGSPGYTLYAWDYWGQGTTVTVSS
VL: DIVMTQTPLSLPVTPGEPASISCRSNQDLTHSNGNTYLEWYLQKPGQSPRLLIYKVSNRFSGVPDRFSGSGAGTDFTLRISRVEAEDVGVYYCMQGTHWPWTFGQGTKVDIKR
notes: also called GC118
B2: Matuzumab (antibody, human IgG1, kappa, V domains shown)
VH: QVQLVQSGAEVKKPGASVKVSCKASGYTFTSHWMHWVRQAPGQGLEWIGEFNPSNGRTNYNEKFKSKATMTVDTSTNTAYMELSSLRSEDTAVYYCASRDYDYDGRYFDYWGQGTLVTVSS
VL: DIQMTQSPSSLSASVGDRVTITCSASSSVTYMYWYQQKPGKAPKLLIYDTSNLASGVPSRFSGSGSGTDYTFTISSLQPEDIATYYCQQWSSHIFTFGQGTKVEIKR
notes: also called IgG Matuzumab
B3: Panitumumab (antibody, human IgG1, kappa, V domains shown)
VH: QVQLQESGPGLVKPSETLSLTCTVSGGSVSSGDYYWTWIRQSPGKGLEWIGHIYYSGNTNYNPSLKSRLTISIDTSKTQFSLKLSSVTAADTAIYYCVRDRVTGAFDIWGQGTMVTVSS
VL: DIQMTQSPSSLSASVGDRVTITCQASQDISNYLNWYQQKPGKAPKLLIYDASNLETGVPSRFSGSGSGTDFTFTISSLQPEDIATYFCQHFDHLPLAFGGGTKVEIKR
notes: also called IgG Panitumumab
B4: Fab-eIg YU250-H10xhuU3 (bispecific antibody)
light: QSVLTQPPSVSGAPGQRVTISCSGGSSNVGRNGVNWFQHLPEKAPKLLIYYDAFLSSGVSDRFSGSKSGTSASLAIRGLQSDDEADYYCAAWDDSLYSWVFGGGTNLTVLGQPKAAPSVTLFPPSSEELQANKATLVCLISDFYPGAVTVAWKADSSPVKAGVETTTPSKQSNNKYAASSYLSLTPEQWKSHRSYSCQVTHEGSTVEKTVAPTECS
chain 1: not shown
chain 2: not shown
chain 3: not shown
notes: also called bispecific trivalent EGFRxCD3 Fab-eIg YU250-H10
B5: IgG1 YU250-A02 (antibody, V domains shown)
VH: QVQLQESGGGVVQPGGSLRLSCAASGFTFSSYGMHWVRQAPGKGLEWVAFIRYDGSNKYYADSVKGRFTISRDNSKNTLYLQMNSLRAEDTAVYYCAKDGNSGYDSMDYWGQGTLVTVSS
VL: QSVLTQPPSVSGAPGQRVTISCSGGSSNVGRNGVNWFQHLPEKAPKLLIYYDAFLSSGVSDRFSGSKSGTSASLAIRGLQSEDEADYYCASWDDSLTGWVFGGGTKLTVLG
notes: also called IgG YU250-A02
B6: IgG1 YU250-H10 (antibody)
light: B4 light
heavy: not shown
notes: also called IgG YU250-H10

Tests used:
[1] = target: T1, EGFR-His fusion protein comprising the extracellular domain of murine EGFR (aa 25 - 647) (murine, UniProt Q01279 25-647); assay: ELISA, coated murine EGFR-His, 10 nM IgG
T1 construct: Bought protein; also called mouse EGFR; Sino Biological 51091-M08H

[2] = target: T2, EGFR-moIgG2a-Fc fusion protein comprising the extracellular domain (aa 25 - 645) of human EGFR (human); assay: competition ELISA, coated EGFR-moIgG2a-Fc; 1 nM IgG against 200 nM Fab-His
T2 construct: also called EGFR wt

[3] = target: T3, EGFR-moIgG2a-Fc F436A/I462A (human); assay: ELISA, coated mutant EGFR-moIgG2a-Fc
T3 construct: see m31; also called double mutant F436A/I462A

[4] = target: T4, EGFR-moIgG2a-Fc F381A/H383A (human); assay: ELISA, coated mutant EGFR-moIgG2a-Fc
T4 construct: also called F381/H383

EGFR-moIgG2a-Fc I462A = target: T5, EGFR-moIgG2a-Fc I462A (human); assay: ELISA, coated mutant EGFR-moIgG2a-Fc
T5 construct: see m31; also called EGFR I462A

EGFR-moIgG2a-Fc F436A = target: T6, EGFR-moIgG2a-Fc F436A (human); assay: ELISA, coated mutant EGFR-moIgG2a-Fc
T6 construct: see m31; also called EGFR F436A

EGFR-moIgG2a-Fc G434A = target: T7, EGFR-moIgG2a-Fc G434A (human); assay: ELISA, coated mutant EGFR-moIgG2a-Fc
T7 construct: also called EGFR G434A

EGFR-moIgG2a-Fc Q435P = target: T8, EGFR-moIgG2a-Fc Q435P (human); assay: ELISA, coated mutant EGFR-moIgG2a-Fc
T8 construct: see m31; also called EGFR Q435P

[5] = target: T9, human EGFR (aa 1 - 1,210), on cells (human, UniProt P00533 25-1210); assay: flow cytometry, A431 cells
T9 construct: also called EGFR wt; NIH-3T3 + EGFR wt

[6] = target: T9, human EGFR (aa 1 - 1,210), on cells; assay: flow cytometry, LIM1215 cells
[7] = target: T9, human EGFR (aa 1 - 1,210), on cells; assay: flow cytometry, DiFi cells
[8] = target: T9, human EGFR (aa 1 - 1,210), on cells; assay: flow cytometry, FaDu cells
[9] = target: T1, EGFR-His fusion protein comprising the …; assay: ELISA, coated murine EGFR-His
EGFR-moIgG2a-Fc K487A = EGFR-moIgG2a-Fc K487A (human); assay: ELISA, coated mutant EGFR-moIgG2a-Fc
EGFR-moIgG2a-Fc S484A = EGFR-moIgG2a-Fc S484A (human); assay: ELISA, coated mutant EGFR-moIgG2a-Fc
[10] = target: T2, EGFR-moIgG2a-Fc fusion protein …; assay: ELISA, coated EGFR-moIgG2a-Fc
EGFR-moIgG2a-Fc K489E = target: T10, EGFR-moIgG2a-Fc K489E (human); assay: ELISA, coated mutant EGFR
T10 construct: See m39

[11] = target: T9, human EGFR (aa 1 - 1,210), on cells; assay: flow cytometry, HCT-116 cells
[12] = target: T9, human EGFR (aa 1 - 1,210), on cells; assay: flow cytometry, FaDu cells; remark: listed apart in the source
[13] = target: T9, human EGFR (aa 1 - 1,210), on cells; assay: cell-based or functional assay
CD3 on Jurkat cells = target: T11, CD3 on Jurkat cells (human, UniProt P07766 23-207); assay: flow cytometry, Jurkat cells
T11 construct: whole, on cells; also called CD3-expressing Jurkat

[14] = target: T9, human EGFR (aa 1 - 1,210), on cells; assay: cell-based or functional assay; remark: listed apart in the source
[15] = target: T9, human EGFR (aa 1 - 1,210), on cells; assay: flow cytometry, SW620 cells
[16] = target: T9, human EGFR (aa 1 - 1,210), on cells; assay: flow cytometry, LIM1215 cells; remark: listed apart in the source
[17] = target: T9, human EGFR (aa 1 - 1,210), on cells; assay: flow cytometry, FaDu cells; remark: listed apart in the source
[18] = target: T12, EGFR-His fusion protein comprising the extracellular domain (aa 25 - 645) of human EGFR (human, UniProt P00533 25-645); assay: ELISA, coated EGFR-His
T12 construct: also called His-tagged extracellular domain of EGFR wt

[19] = target: T9, human EGFR (aa 1 - 1,210), on cells; assay: flow cytometry, DiFi cells; remark: listed apart in the source
[20] = target: T9, human EGFR (aa 1 - 1,210), on cells; assay: flow cytometry, FaDu cells; remark: listed apart in the source
[21] = target: T12, EGFR-His fusion protein comprising the …; assay: ELISA, coated human EGFR
[22] = target: T1, EGFR-His fusion protein comprising the …; assay: ELISA, coated murine EGFR-His; remark: listed apart in the source
[23] = target: T12, EGFR-His fusion protein comprising the …; assay: ELISA, coated human EGFR-His
[24] = target: T13, EGFR-His fusion protein comprising the extracellular domain of cynomolgus monkey EGFR (aa 1 - 645) (cynomolgus monkey, UniProt P55245 25-645 (rhesus entry)); assay: ELISA, coated cynomolgus monkey EGFR-His
T13 construct: Bought protein; also called Sino Biological SIN-90285-C08H-50

[25] = target: T2, EGFR-moIgG2a-Fc fusion protein …; assay: ELISA, coated EGFR-moIgG2a-Fc; remark: listed apart in the source

Binder | binding result [3] | binding result (EGFR-moIgG2a-Fc I462A) | binding result (EGFR-moIgG2a-Fc F436A) | binding result (EGFR-moIgG2a-Fc G434A) | binding result (EGFR-moIgG2a-Fc Q435P) | EC50 [5] [nM] | EC50 [6] [nM] | EC50 [7] [nM] | EC50 [8] [nM] | binding result [9] | binding result [10] | EC50 [18] [nM] | EC50 [19] [nM] | EC50 [20] [nM] | EC50 [21] [nM] | EC50 [22] [nM] | EC50 [23] [nM] | EC50 [24] [nM] | also measured
B1 | binds | binds | binds | binds | binds | 1.67 | 0.15 | 1.1 | 0.47 | – | – | – | – | – | – | – | – | – | binding result [1]: binds; binding result [2]: binds; binding result [4]: no binding
B2 | binds | binds | binds | binds | binds | 1.68 | 0.12 | 0.95 | 0.34 | no binding (tested: 10 nM) | binds | – | – | – | – | – | – | – | binding result (EGFR-moIgG2a-Fc K487A): no binding; binding result (EGFR-moIgG2a-Fc S484A): no binding
B3 | binds | binds | binds | binds | binds | – | – | – | – | no binding (tested: 10 nM) | binds | – | – | – | – | – | – | – | binding result (EGFR-moIgG2a-Fc K489E): binds
B4 | – | – | – | – | – | – | – | – | – | – | – | – | – | – | – | – | – | – | EC50 [11]: 0.13 nM; EC50 [12]: 0.32 nM; IC50 for cytotoxicity, FaDu + PBMCs (E:T 10:1) [13]: 0.007 nM; IC50 for cytotoxicity, LIM1215 + PBMCs (E:T 10:1) [13]: 0.003 nM; EC50 (CD3 on Jurkat cells): > 10 nM; IC50 for cytotoxicity, FaDu + PBMCs (E:T 10:1) [14]: 0.0048 nM; IC50 for cytotoxicity, HCT-116 + PBMCs (E:T 10:1) [14]: 0.003 nM; IC50 for cytotoxicity, SW620 + PBMCs (E:T 10:1) [14]: 0.0049 nM; EC50 [15]: 0.03 nM; EC50 [16]: 0.27 nM; EC50 [17]: 0.76 nM
B5 | – | – | – | – | – | 1.24 | 0.09 | 0.64 | 0.26 | – | – | 0.16 | 0.64 | 0.23 | 0.59 | 0.38 | 0.36 | 0.69 | –
B6 | – | – | – | – | – | 1.56 | 0.09 | 0.73 | 0.27 | – | – | 0.19 | 0.78 | 0.29 | 0.78 | 0.45 | 0.28 | 0.58 | EC50 [25]: 0.27 nM
